Drawing on article PMC2386976, this text covers Kd for one substance.

pKd: −log10 of the molar value.

The subject of this series is EIAV Rev (ERev), MBP-ERev fusion (Equine infectious anemia virus (EIAV)). The series is described as follows: filter binding. The conditions noted are these: Footprinting: 10 mM HEPES-KOH pH 7.5, 100 mM KCl, 1 mM MgCl2, 0.5 mM EDTA, complex formed 20 min on ice, probed 10 min at room temperature.

“ERRE_RBR12 (ERRE, EIAV RRE-1, contains RBR-1 and RBR-2)” gave a negative-log Kd (pKd) of 7.72.
